# Measured values: patent US20250277046A1 (JULIUS MAXIMILIANS UNIVERSIT T W RZBURG, published 2025)
# Target: T1, Fibroblast growth factor (FGF)-inducible 14 (Fn14) (UniProt Q9NP84 28-129, limits assumed)
# T1 sequence (looked up): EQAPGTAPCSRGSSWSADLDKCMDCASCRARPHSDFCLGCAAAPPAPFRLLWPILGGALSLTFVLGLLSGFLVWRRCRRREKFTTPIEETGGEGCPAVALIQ
# Assay: cell-based or functional assay
Binder,"enhancement of TNF-induced toxicity (HeLa-RIPK3-FADDKO cells, 1 ng/ml TNF), ED50 [µg/mL]","p100 processing (western blot), starting concentration [ng/mL]"
18D1-(2) (antibody) heavy: not shown light: QLDYKDDDDKEFQSALTQPPSVSGSPGKTVTISCAGTGGDVGYRNSVSWYQQLPGMAPKLLIYDVDKRASGITDRFSGSKSGDTASLTISGVQSEDEADYYCASQRSGIAAVFGGGTHLTVLGGSEIKRTVAAPSVFIFPPSDEQLKSGTASVVCLLNNFYPREAKVQWKVDNALQSGNSQESVTEQDSKDSTYSLSSTLTLSKADYEKHKVYACEVTHQGLSSPVTKSFNRGEC,< 0.1,~20
18D1-(3) (antibody) heavy: not shown light: QLDYKDDDDKEFQSALTQPPSVSGSPGKTVTISCAGTGGDVGYRNSVSWYQQLPGMAPKLLIYDVDKRASGITDRFSGSKSGDTASLTISGVQSEDEADYYCASQRSGIAAVFGGGTHLTVLGGSEIKRTVAAPSVFIFPPSDEQLKSGTASVVCLLNNFYPREAKVQWKVDNALQSGNSQESVTEQDSKDSTYSLSSTLTLSKADYEKHKVYACEVTHQGLSSPVTKSFNRGECLEEVQLVESGGGLVQPGGSLRLSCAASGFTFSNYWMSWVRQAPGKGLEWVSGINPGGTSTYYADSVKGRFTISRDNAKNTLYLQMNSLKSEDTAVYYCAKHLGNWGEYNYWGQGTQVTVSSRSSTKGPKLEEGEFSEAQLQSALTQPPSVSGSPGKTVTISCAGTGGDVGYRNSVSWYQQLPGMAPKLLIYDVDKRASGITDRFSGSKSGDTASLTISGVQSEDEADYYCASQRSGIAAVFGGGTHLTVLG,< 0.1,~20
18D1-(4) (antibody) heavy: not shown light: QLDYKDDDDKEFQSALTQPPSVSGSPGKTVTISCAGTGGDVGYRNSVSWYQQLPGMAPKLLIYDVDKRASGITDRFSGSKSGDTASLTISGVQSEDEADYYCASQRSGIAAVFGGGTHLTVLGGSEIKRTVAAPSVFIFPPSDEQLKSGTASVVCLLNNFYPREAKVQWKVDNALQSGNSQESVTEQDSKDSTYSLSSTLTLSKADYEKHKVYACEVTHQGLSSPVTKSFNRGECLEEVQLVESGGGLVQPGGSLRLSCAASGFTFSNYWMSWVRQAPGKGLEWVSGINPGGTSTYYADSVKGRFTISRDNAKNTLYLQMNSLKSEDTAVYYCAKHLGNWGEYNYWGQGTQVTVSSRSSTKGPKLEEGEFSEAQLQSALTQPPSVSGSPGKTVTISCAGTGGDVGYRNSVSWYQQLPGMAPKLLIYDVDKRASGITDRFSGSKSGDTASLTISGVQSEDEADYYCASQRSGIAAVFGGGTHLTVLG,< 0.1,~20
18D1-(5) (antibody) heavy: not shown light: QLDYKDDDDKEFEVQLVESGGGLVQPGGSLRLSCAASGFTFSNYWMSWVRQAPGKGLEWVSGINPGGTSTYYADSVKGRFTISRDNAKNTLYLQMNSLKSEDTAVYYCAKHLGNWGEYNYWGQGTQVTVSSRSSTKGPKLEEGEFSEAQLQSALTQPPSVSGSPGKTVTISCAGTGGDVGYRNSVSWYQQLPGMAPKLLIYDVDKRASGITDRFSGSKSGDTASLTISGVQSEDEADYYCASQRSGIAAVFGGGTHLTVLGGSEIKRTVAAPSVFIFPPSDEQLKSGTASVVCLLNNFYPREAKVQWKVDNALQSGNSQESVTEQDSKDSTYSLSSTLTLSKADYEKHKVYACEVTHQGLSSPVTKSFNRGEC,< 0.1,~200
18D1-(6) (antibody) heavy: not shown light: QLDYKDDDDKEFEVQLVESGGGLVQPGGSLRLSCAASGFTFSNYWMSWVRQAPGKGLEWVSGINPGGTSTYYADSVKGRFTISRDNAKNTLYLQMNSLKSEDTAVYYCAKHLGNWGEYNYWGQGTQVTVSSRSSTKGPKLEEGEFSEAQLQSALTQPPSVSGSPGKTVTISCAGTGGDVGYRNSVSWYQQLPGMAPKLLIYDVDKRASGITDRFSGSKSGDTASLTISGVQSEDEADYYCASQRSGIAAVFGGGTHLTVLGGSEIKRTVAAPSVFIFPPSDEQLKSGTASVVCLLNNFYPREAKVQWKVDNALQSGNSQESVTEQDSKDSTYSLSSTLTLSKADYEKHKVYACEVTHQGLSSPVTKSFNRGEC,< 0.1,~200
18D1-(7) (antibody) heavy: not shown light: QLDYKDDDDKEFEVQLVESGGGLVQPGGSLRLSCAASGFTFSNYWMSWVRQAPGKGLEWVSGINPGGTSTYYADSVKGRFTISRDNAKNTLYLQMNSLKSEDTAVYYCAKHLGNWGEYNYWGQGTQVTVSSRSSTKGPKLEEGEFSEAQLQSALTQPPSVSGSPGKTVTISCAGTGGDVGYRNSVSWYQQLPGMAPKLLIYDVDKRASGITDRFSGSKSGDTASLTISGVQSEDEADYYCASQRSGIAAVFGGGTHLTVLGGSEIKRTVAAPSVFIFPPSDEQLKSGTASVVCLLNNFYPREAKVQWKVDNALQSGNSQESVTEQDSKDSTYSLSSTLTLSKADYEKHKVYACEVTHQGLSSPVTKSFNRGECLEEVQLVESGGGLVQPGGSLRLSCAASGFTFSNYWMSWVRQAPGKGLEWVSGINPGGTSTYYADSVKGRFTISRDNAKNTLYLQMNSLKSEDTAVYYCAKHLGNWGEYNYWGQGTQVTVSSRSSTKGPKLEEGEFSEAQLQSALTQPPSVSGSPGKTVTISCAGTGGDVGYRNSVSWYQQLPGMAPKLLIYDVDKRASGITDRFSGSKSGDTASLTISGVQSEDEADYYCASQRSGIAAVFGGGTHLTVLG,< 0.1,~200
18D1-(8) (antibody) heavy: not shown light: QLDYKDDDDKEFEVQLVESGGGLVQPGGSLRLSCAASGFTFSNYWMSWVRQAPGKGLEWVSGINPGGTSTYYADSVKGRFTISRDNAKNTLYLQMNSLKSEDTAVYYCAKHLGNWGEYNYWGQGTQVTVSSRSSTKGPKLEEGEFSEAQLQSALTQPPSVSGSPGKTVTISCAGTGGDVGYRNSVSWYQQLPGMAPKLLIYDVDKRASGITDRFSGSKSGDTASLTISGVQSEDEADYYCASQRSGIAAVFGGGTHLTVLGGSEIKRTVAAPSVFIFPPSDEQLKSGTASVVCLLNNFYPREAKVQWKVDNALQSGNSQESVTEQDSKDSTYSLSSTLTLSKADYEKHKVYACEVTHQGLSSPVTKSFNRGECLEEVQLVESGGGLVQPGGSLRLSCAASGFTFSNYWMSWVRQAPGKGLEWVSGINPGGTSTYYADSVKGRFTISRDNAKNTLYLQMNSLKSEDTAVYYCAKHLGNWGEYNYWGQGTQVTVSSRSSTKGPKLEEGEFSEAQLQSALTQPPSVSGSPGKTVTISCAGTGGDVGYRNSVSWYQQLPGMAPKLLIYDVDKRASGITDRFSGSKSGDTASLTISGVQSEDEADYYCASQRSGIAAVFGGGTHLTVLG,< 0.1,~200
